Tests used:
hVEGF (human) [1] = target: hVEGF (human) (UniProt P15692); assay: SPR; settings: Fab
hVEGF (human) [2] = target: hVEGF (human) (UniProt P15692); assay: SPR; 25 C; settings: Fab
hVEGF (human) [3] = target: hVEGF (human) (UniProt P15692); assay: SPR; 37 C; settings: Fab
hVEGF (human) [4] = target: hVEGF (human) (UniProt P15692); assay: competition; 25 C; settings: Fab
[5] = target: T1, murine VEGF (mVEGF) (mouse) (UniProt Q00731); assay: BIAcore or solution binding ELISA, control Fab
T1 sequence (looked up): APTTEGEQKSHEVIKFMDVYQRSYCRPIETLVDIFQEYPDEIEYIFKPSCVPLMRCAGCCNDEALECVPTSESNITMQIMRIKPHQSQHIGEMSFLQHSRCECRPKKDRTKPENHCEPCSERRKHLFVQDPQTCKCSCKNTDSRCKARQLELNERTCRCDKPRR

mVEGF (mouse) = mVEGF (mouse) (UniProt Q00731); assay: competition; 25 C; settings: Fab

Y0317 Fab, sequence (VH): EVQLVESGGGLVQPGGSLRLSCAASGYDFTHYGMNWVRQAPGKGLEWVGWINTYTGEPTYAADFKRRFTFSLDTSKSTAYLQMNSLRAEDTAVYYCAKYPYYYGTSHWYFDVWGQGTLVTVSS
Y0317 Fab, sequence (VL): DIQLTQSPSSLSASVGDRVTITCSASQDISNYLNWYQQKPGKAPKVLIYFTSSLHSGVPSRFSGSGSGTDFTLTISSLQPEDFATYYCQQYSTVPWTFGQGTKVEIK

Kd (hVEGF (human) [1]) | Kd (hVEGF (human) [2]) | Kd (hVEGF (human) [3]) | IC50 (hVEGF (human) [4]) | Kd [5] | IC50 (mVEGF (mouse)) | Substance
2.9 nM | 2.9 nM | 12.9 nM | 1.1 nM | – | – | Avastin
– | – | – | – | 350 nM | – | Y0317 Fab
– | 0.2 nM | 0.11 nM | 0.02 nM | – | 300 nM | Y0317

Reference: patent publication US20070020267A1
